Results: article PMC4613909

Biological target: Artemia salina 40S ribosomal subunit (Artemia salina)
Assay: iRIA (in vitro Ribosomes Interaction Assay, microwell solid-phase binding); 40S immobilised, labeled 60S displaced by 5-fold unlabeled 60S; room temperature, 10 minutes

“Artemia salina 60S ribosomal subunit (mature) (complex)” showed a percent displacement of labeled 60S by 5-fold unlabeled 60S of 50%.
